The text below walks through data of patent publication US20250250314.

As usually defined, the kcat/Km is the second-order rate constant that governs catalysis at low substrate concentration.

The subject of the data set is UCM12.

Chain of UCM12 (chain, as listed by the source, chain 1 of 3, other chains not shown): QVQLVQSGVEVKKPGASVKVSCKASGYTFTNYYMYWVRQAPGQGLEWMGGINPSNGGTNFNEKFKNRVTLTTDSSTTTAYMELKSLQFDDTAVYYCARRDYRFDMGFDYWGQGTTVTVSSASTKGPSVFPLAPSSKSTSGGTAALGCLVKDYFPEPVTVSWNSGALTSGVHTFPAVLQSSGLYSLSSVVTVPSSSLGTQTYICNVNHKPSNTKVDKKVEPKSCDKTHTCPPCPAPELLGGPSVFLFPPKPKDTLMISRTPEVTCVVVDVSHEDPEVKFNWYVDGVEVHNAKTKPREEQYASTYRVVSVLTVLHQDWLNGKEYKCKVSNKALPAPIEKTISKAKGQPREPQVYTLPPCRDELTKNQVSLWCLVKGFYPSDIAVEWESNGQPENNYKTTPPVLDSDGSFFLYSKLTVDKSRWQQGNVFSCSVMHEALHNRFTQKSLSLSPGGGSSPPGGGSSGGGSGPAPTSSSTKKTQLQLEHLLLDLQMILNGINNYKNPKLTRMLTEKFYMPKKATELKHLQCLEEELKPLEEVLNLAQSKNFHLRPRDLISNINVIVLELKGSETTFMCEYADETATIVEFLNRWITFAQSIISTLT
Chain of UCM12 (chain, as listed by the source, chain 2 of 3, other chains not shown): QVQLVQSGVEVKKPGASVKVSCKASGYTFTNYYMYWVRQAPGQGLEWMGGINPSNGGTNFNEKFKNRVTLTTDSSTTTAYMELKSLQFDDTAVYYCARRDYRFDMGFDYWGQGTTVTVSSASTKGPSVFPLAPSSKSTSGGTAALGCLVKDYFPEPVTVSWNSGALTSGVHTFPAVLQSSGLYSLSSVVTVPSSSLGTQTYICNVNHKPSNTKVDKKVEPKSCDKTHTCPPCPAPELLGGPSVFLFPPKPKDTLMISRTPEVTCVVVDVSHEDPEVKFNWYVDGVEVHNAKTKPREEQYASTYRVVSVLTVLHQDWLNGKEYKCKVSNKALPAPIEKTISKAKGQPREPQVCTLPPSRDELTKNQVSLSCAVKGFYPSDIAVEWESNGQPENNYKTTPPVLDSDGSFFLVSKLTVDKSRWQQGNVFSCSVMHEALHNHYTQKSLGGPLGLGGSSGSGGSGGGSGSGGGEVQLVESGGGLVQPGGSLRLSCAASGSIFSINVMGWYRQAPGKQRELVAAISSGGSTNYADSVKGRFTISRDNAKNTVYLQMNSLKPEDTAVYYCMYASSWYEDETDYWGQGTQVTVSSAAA
Chain of MMP8 (chain, as listed by the source): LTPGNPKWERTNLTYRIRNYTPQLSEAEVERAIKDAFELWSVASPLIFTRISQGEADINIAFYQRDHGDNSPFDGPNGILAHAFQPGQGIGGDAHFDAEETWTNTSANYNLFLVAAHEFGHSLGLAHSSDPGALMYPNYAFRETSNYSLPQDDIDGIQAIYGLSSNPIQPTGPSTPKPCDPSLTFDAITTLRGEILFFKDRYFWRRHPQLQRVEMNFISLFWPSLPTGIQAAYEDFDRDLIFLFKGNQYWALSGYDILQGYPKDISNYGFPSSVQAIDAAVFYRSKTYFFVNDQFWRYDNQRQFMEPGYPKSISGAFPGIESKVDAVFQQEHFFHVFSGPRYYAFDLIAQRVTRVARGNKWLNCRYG
Chain of MMP9 (chain, as listed by the source): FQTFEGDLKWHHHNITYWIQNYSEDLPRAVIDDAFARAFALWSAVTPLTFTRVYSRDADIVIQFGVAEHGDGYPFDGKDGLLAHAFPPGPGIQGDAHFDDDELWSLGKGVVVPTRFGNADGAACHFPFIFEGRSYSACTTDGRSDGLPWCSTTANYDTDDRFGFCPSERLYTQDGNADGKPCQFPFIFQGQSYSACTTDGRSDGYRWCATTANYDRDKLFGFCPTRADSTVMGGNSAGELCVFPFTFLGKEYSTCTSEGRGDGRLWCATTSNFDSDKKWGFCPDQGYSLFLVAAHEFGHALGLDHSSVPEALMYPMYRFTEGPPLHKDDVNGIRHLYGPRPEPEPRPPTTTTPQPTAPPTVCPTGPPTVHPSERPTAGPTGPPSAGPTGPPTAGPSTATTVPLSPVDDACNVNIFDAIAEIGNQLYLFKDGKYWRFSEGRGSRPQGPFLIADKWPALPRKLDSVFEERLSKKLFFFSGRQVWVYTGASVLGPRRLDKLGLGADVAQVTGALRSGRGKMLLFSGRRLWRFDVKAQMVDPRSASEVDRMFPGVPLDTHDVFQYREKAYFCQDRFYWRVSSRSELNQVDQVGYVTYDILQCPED
Chain of Cathepsin L (chain, as listed by the source): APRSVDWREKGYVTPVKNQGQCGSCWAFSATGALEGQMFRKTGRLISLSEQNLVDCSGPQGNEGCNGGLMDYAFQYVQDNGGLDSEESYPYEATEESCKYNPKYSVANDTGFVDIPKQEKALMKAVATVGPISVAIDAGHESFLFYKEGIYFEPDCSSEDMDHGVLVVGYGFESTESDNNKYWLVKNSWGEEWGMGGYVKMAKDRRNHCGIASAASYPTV

In the case of MMP9, the kcat/Km came to 7900 M⁻¹ s⁻¹.

For MMP8, the kcat/Km came out at 810 M⁻¹ s⁻¹.

Regarding Cathepsin L, the kcat/Km was determined as 14000 M⁻¹ s⁻¹.
